Consider 94 variants from the supplement of paper PMC10567573.

The chains are these.
B1: KIAA1161 (parent)
chain: FMPAMQFSIPPWRYDAEVVAIAQK
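Further: lentivirally expressed fusions sorted by FACS into six bins by GFP to DsRed ratio, PSI derived from sequencing read proportions per bin multiplied by bin number.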

Variants of B1 are the subject of the data set. In words: protein stability index of a GFP-peptide fusion (GPS, HEK-293T) (PSI 1-6); higher = more stable. The settings on record: c terminus: a fixed tail appended.
Turning to FMPAMQFSIPKWRYDAEVVAIAQK [P11K], the protein stability index came out at 1.65.
For the variant FMPAMQFSIPIWRYDAEVVAIAQK [P11I], the protein stability index turned out to be 1.59.
To FMPAMQFSIPYWRYDAEVVAIAQK [P11Y] belongs 2.28; to FMPAMQFSIPFWRYDAEVVAIAQK [P11F], 2.17; to FMPAMQFSIPLWRYDAEVVAIAQK [P11L], 2.24.
Consider FMPAMQFSIPAWRYDAEVVAIAQK [P11A], for which the protein stability index was determined as 1.61.
The figure for FMPAMQFSIPHWRYDAEVVAIAQK [P11H] is 3.1; for FMPAMQFSIPSWRYDAEVVAIAQK [P11S] it is 2.03; for FMPAMQFSIPGWRYDAEVVAIAQK [P11G] it is 1.48.
The figure for FMPAMQFSIPDWRYDAEVVAIAQK [P11D] is 2.37.
Consider FMPAMQFSIPQWRYDAEVVAIAQK [P11Q], for which the protein stability index was determined as 1.78.
The figure for FMPAMQFSIPNWRYDAEVVAIAQK [P11N] is 2.11; for FMPAMQFSIPVWRYDAEVVAIAQK [P11V] it is 1.01.
For FMPAMQFSIPRWRYDAEVVAIAQK [P11R], the protein stability index came to 1.48.
Consider FMPAMQFSIPCWRYDAEVVAIAQK [P11C], for which the protein stability index was 1.79.
With FMPAMQFSIPTWRYDAEVVAIAQK [P11T], the protein stability index worked out at 1.69.
For the variant FMPAMQFSIPEWRYDAEVVAIAQK [P11E], the protein stability index stood at 1.64.
Take FMPAMQFSIPPWRYYAEVVAIAQK [D15Y]: the protein stability index was determined as 3.05.
The figure for FMPAMQFSIPPWRYMAEVVAIAQK [D15M] is 2.56.
On to FMPAMQFSIPPWRYWAEVVAIAQK [D15W], for which the protein stability index was 1.19.
The figure for FMPAMQFSIPPWRYPAEVVAIAQK [D15P] is 1.17.
To FMPAMQFSIPPWRYQAEVVAIAQK [D15Q] belongs 1.94; to FMPAMQFSIPPWRYTAEVVAIAQK [D15T], 2.69.
On to FMPAMQFSIPPWRYEAEVVAIAQK [D15E], for which the protein stability index stood at 2.5.
Turning to FMPAMQFSIPPWRYKAEVVAIAQK [D15K], the protein stability index stood at 1.25.
For FMPAMQFSIPPWRYGAEVVAIAQK [D15G], the protein stability index is 1.75.
The figure for FMPAMQFSIPPWRYLAEVVAIAQK [D15L] is 1.5; for FMPAMQFSIPPWRYNAEVVAIAQK [D15N] it is 3.08; for FMPAMQFSIPPWRYSAEVVAIAQK [D15S] it is 1.24.
As for FMPAMQFSIPPWRYRAEVVAIAQK [D15R], the protein stability index came to 1.95.
The figure for FMPAMQFSIPPWRYDAPVVAIAQK [E17P] is 1.48; for FMPAMQFSIPPWRYDADVVAIAQK [E17D] it is 1.54; for FMPAMQFSIPPWRYDACVVAIAQK [E17C] it is 1.68.
To FMPAMQFSIPPWRYDAIVVAIAQK [E17I] belongs 1.52.
To FMPAMQFSIPPWRYDARVVAIAQK [E17R] belongs 1.38.
FMPAMQFSIPPWRYDAYVVAIAQK [E17Y]: the protein stability index was found to be 2.45.
To FMPAMQFSIPPWRYDASVVAIAQK [E17S] belongs 1.62; to FMPAMQFSIPPWRYDAWVVAIAQK [E17W], 3.06.
In the case of FMPAMQFSIPPWRYDAGVVAIAQK [E17G], the protein stability index is 1.72.
With FMPAMQFSIPPWRYDAQVVAIAQK [E17Q], the protein stability index was found to be 3.67.
To FMPAMQFSIPPWRYDAHVVAIAQK [E17H] belongs 1.92; to FMPAMQFSIPPWRYDAFVVAIAQK [E17F], 2.13.
Regarding FMPAMQFSIPPWRYDAVVVAIAQK [E17V], the protein stability index was found to be 1.24.
FMPAMQFSIPPWRYDAKVVAIAQK [E17K]: the protein stability index amounted to 2.66.
In the case of FMPAMQFSIPPWRYDANVVAIAQK [E17N], the protein stability index turned out to be 1.62.
To FMPAMQFSIPPWRYDAAVVAIAQK [E17A] belongs 1.2; to FMPAMQFSIPPWRCDAEVVAIAQK [Y14C], 1.67; to FMPAMQFSIPPWRPDAEVVAIAQK [Y14P], 1.79.
As for FMPAMQFSIPPWRLDAEVVAIAQK [Y14L], the protein stability index is 1.59.
Regarding FMPAMQFSIPPWRGDAEVVAIAQK [Y14G], the protein stability index is 1.93.
To FMPAMQFSIPPWRMDAEVVAIAQK [Y14M] belongs 2.25.
Regarding FMPAMQFSIPPWRQDAEVVAIAQK [Y14Q], the protein stability index turned out to be 2.57.
The figure for FMPAMQFSIPPWRHDAEVVAIAQK [Y14H] is 2.52.
To FMPAMQFSIPPWRNDAEVVAIAQK [Y14N] belongs 2.37.
The figure for FMPAMQFSIPPWRSDAEVVAIAQK [Y14S] is 2.13; for FMPAMQFSIPPWRIDAEVVAIAQK [Y14I] it is 1.05; for FMPAMQFSIPPWRTDAEVVAIAQK [Y14T] it is 2.82.
Turning to FMPAMQFSIPPWRFDAEVVAIAQK [Y14F], the protein stability index was found to be 1.63.
Regarding FMPAMQFSIPPWRKDAEVVAIAQK [Y14K], the protein stability index came to 2.08.
To FMPAMQFSIPPWRDDAEVVAIAQK [Y14D] belongs 2.2; to FMPAMQFSIPPWRADAEVVAIAQK [Y14A], 2.2; to FMPAMQFSIPPWRYDAEVRAIAQK [V19R], 2.83.
The figure for FMPAMQFSIPPWRYDAEVIAIAQK [V19I] is 1.46; for FMPAMQFSIPPWRYDAEVGAIAQK [V19G] it is 2.2; for FMPAMQFSIPPWRYDAEVHAIAQK [V19H] it is 1.56.
To FMPAMQFSIPPWRYDAEVSAIAQK [V19S] belongs 1.48.
Take FMPAMQFSIPPWRYDAEVNAIAQK [V19N]: the protein stability index came out at 3.31.
For the variant FMPAMQFSIPPWRYDAEVKAIAQK [V19K], the protein stability index amounted to 1.99.
To FMPAMQFSIPPWRYDAEVCAIAQK [V19C] belongs 2.39.
For the variant FMPAMQFSIPPWRYDAEVAAIAQK [V19A], the protein stability index came to 2.18.
For FMPAMQFSIPPWRYDAEVDAIAQK [V19D], the protein stability index turned out to be 2.82.
On to FMPAMQFSIPPWRYDAEVMAIAQK [V19M], for which the protein stability index came to 1.81.
To FMPAMQFSIPPWRYDAEVEAIAQK [V19E] belongs 2.42; to FMPAMQFSIPPWRYDAEVQAIAQK [V19Q], 2.5.
With FMPAMQFSIPPWRYDAEVTAIAQK [V19T], the protein stability index came to 2.21.
With FMPAMQFSIPPWRYDAEVFAIAQK [V19F], the protein stability index amounted to 2.48.
To FMPAMQFSIPPWRYDAEVPAIAQK [V19P] belongs 4.1.
For FMPAMQFSIPPWRYDAEVYAIAQK [V19Y], the protein stability index was 3.33.
To FMPAMQFSIPPWRYDAEVLAIAQK [V19L] belongs 1.47.
The figure for FMPAMQFSIPPWRYDAEDVAIAQK [V18D] is 2.36; for FMPAMQFSIPPWRYDAEEVAIAQK [V18E] it is 2.63.
The figure for FMPAMQFSIPPWRYDAEYVAIAQK [V18Y] is 2.03; for FMPAMQFSIPPWRYDAEIVAIAQK [V18I] it is 2.06; for FMPAMQFSIPPWRYDAERVAIAQK [V18R] it is 3.34.
Turning to FMPAMQFSIPPWRYDAEPVAIAQK [V18P], the protein stability index was found to be 2.96.
The figure for FMPAMQFSIPPWRYDAETVAIAQK [V18T] is 1.88; for FMPAMQFSIPPWRYDAEWVAIAQK [V18W] it is 3.22; for FMPAMQFSIPPWRYDAEFVAIAQK [V18F] it is 1.62.
To FMPAMQFSIPPWRYDAEMVAIAQK [V18M] belongs 1.88; to FMPAMQFSIPPWRYDAEKVAIAQK [V18K], 2.33; to FMPAMQFSIPPWRYDAEHVAIAQK [V18H], 2.93.
Regarding FMPAMQFSIPPWRYDAEQVAIAQK [V18Q], the protein stability index turned out to be 2.81.
With FMPAMQFSIPPWRYDAECVAIAQK [V18C], the protein stability index came to 1.86.
Take FMPAMQFSIPPWRYDAENVAIAQK [V18N]: the protein stability index worked out at 2.23.
